In PMC7211019 (2020):
Ends that are not written are not given here.

What was measured:
Par3 PDZ2 = Par3 PDZ2 (Rattus norvegicus); assay: FP
Par3 PDZ3 [1] = molecular target: T1, Par3 PDZ3 (rat, UniProt Q9Z340 582-685); assay: FP
Par3 PDZ3 G600,602 A = Par3 PDZ3 G600,602 A (rat, UniProt Q9Z340 582-685, G600,602 A (G600A) | G600,602 A (G602A)); assay: FP
Par3 PDZ1 = Par3 PDZ1 (rat, UniProt Q9Z340 1-1337); assay: FP
Par3 PDZ3 [2] = molecular target: T1, Par3 PDZ3; assay: FP; 0% 1,6-hexanediol
Par3 PDZ3 [3] = molecular target: T1, Par3 PDZ3; assay: FP; 5% 1,6-hexanediol
Par3 PDZ3 [4] = molecular target: T1, Par3 PDZ3; assay: FP; 10% 1,6-hexanediol
Par3 PDZ3 [5] = molecular target: T1, Par3 PDZ3; assay: FP; 25% 1,6-hexanediol

T1 sequence (Q9Z340 582-685): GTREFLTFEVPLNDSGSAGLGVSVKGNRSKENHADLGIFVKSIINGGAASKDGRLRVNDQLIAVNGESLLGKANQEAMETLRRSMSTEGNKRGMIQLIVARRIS
Sequence of Par3 PDZ3 G600,602 A (Q9Z340 582-685 G600A/G602A): as the sequence (Q9Z340 582-685) above, with G19A, G21A counted along it
Sequence of Par3 PDZ2 (Rattus norvegicus) (chain, as listed by the source): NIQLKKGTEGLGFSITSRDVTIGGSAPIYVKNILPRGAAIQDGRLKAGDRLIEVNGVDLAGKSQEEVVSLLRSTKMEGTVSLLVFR
Sequence of Par3 PDZ1 (Q9Z340 whole entry): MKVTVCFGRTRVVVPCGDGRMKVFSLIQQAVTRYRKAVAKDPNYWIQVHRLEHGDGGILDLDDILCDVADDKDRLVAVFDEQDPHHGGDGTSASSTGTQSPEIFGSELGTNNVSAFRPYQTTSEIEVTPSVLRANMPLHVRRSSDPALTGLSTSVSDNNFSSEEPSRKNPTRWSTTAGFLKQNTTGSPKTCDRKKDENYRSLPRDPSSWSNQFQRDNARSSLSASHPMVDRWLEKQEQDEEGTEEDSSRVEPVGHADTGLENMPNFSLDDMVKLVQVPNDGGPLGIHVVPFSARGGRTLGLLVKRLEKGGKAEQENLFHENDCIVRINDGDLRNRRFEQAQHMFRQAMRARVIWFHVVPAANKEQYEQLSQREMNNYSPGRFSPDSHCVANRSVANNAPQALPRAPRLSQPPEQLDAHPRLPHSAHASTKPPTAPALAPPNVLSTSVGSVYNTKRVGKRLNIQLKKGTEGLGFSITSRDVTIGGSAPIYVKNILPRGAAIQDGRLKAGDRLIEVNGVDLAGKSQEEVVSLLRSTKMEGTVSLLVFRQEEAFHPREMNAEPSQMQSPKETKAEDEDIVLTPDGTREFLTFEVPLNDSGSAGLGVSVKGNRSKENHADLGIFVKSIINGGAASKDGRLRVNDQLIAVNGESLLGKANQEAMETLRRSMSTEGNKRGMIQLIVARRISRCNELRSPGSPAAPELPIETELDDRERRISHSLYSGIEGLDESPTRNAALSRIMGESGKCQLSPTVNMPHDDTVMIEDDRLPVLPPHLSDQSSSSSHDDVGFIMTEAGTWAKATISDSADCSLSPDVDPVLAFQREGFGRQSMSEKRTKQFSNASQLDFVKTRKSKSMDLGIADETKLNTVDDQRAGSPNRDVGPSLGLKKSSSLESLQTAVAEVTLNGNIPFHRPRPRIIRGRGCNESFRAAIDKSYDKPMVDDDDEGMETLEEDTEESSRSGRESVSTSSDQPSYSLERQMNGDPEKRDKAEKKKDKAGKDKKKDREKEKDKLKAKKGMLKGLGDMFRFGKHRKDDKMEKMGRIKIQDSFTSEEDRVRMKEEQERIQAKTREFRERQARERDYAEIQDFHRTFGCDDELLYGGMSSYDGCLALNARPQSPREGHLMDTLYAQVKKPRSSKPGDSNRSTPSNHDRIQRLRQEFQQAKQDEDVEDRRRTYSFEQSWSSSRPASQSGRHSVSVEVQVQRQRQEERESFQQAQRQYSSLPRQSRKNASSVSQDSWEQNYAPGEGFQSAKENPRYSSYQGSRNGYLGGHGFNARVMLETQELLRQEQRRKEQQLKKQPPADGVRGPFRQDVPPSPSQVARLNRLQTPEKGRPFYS

LEEDGTIITL (also: FITC label, position not given here) [FITC-labeled Par6β PBM peptide] gave a Kd (Par3 PDZ2) of 161 µM, a Kd (Par3 PDZ3 [1]) of 1.1 µM and a Kd (Par3 PDZ3 G600,602 A) of 20 µM. It also gave a Kd (Par3 PDZ1) of 104 µM, a Kd (Par3 PDZ3 [2]) of 1.1 µM and a Kd (Par3 PDZ3 [3]) of 4.9 µM. It also gave a Kd (Par3 PDZ3 [4]) of 9.7 µM and a Kd (Par3 PDZ3 [5]) of 22 µM.

In the case of VEEHGPAITL (also: FITC label, position not given here) [FITC-labeled Par6γ PBM peptide], the Kd (Par3 PDZ3 [1]) is reported as 1.3 µM.

Binder MRGDVSGFSL (also: FITC label, position not given here) [FITC-labeled Par6α PBM peptide] has a Kd (Par3 PDZ3 [1]) of 172 µM.
